The experiment concerns the target T1, keratin 1 (K1) (UniProt P04104 1-637).
T1 sequence (looked up): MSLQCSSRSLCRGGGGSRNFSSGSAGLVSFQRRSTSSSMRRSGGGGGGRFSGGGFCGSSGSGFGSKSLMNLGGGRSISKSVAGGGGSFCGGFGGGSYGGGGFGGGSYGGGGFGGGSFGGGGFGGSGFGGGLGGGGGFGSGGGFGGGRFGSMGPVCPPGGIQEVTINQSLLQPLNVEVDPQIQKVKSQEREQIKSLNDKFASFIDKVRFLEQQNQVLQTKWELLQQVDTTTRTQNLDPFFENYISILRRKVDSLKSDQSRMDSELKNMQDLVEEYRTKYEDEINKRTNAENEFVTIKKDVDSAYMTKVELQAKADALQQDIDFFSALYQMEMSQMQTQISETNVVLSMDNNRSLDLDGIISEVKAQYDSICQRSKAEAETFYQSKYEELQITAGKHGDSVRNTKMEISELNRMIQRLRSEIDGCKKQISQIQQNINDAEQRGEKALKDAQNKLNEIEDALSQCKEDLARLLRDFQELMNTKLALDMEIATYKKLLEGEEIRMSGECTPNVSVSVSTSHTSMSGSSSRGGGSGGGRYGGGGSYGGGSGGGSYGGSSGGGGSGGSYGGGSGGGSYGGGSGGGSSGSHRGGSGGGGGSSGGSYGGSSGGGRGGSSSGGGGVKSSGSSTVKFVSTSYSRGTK
Put plainly: co-sedimentation.

B1: keratin 10 (K10), full length (natural protein, UniProt P02535-2 1-561, looked up)
chain: MSVLYSSSSKQFSSSRSGGGGGGGSVRVSSTRGSLGGGYSSGGFSGGSFSRGSSGGGCFGGSSGGYGGFGGGGSFGGGYGGSSFGGGYGGSSFGGGSFGGGGSFGGGSFGGGSYGGGFGGGGFGGDGGSLLSGNEKVTMQNLNDRLASYMDKVRALEESNYELEGKIKEWYEKHGNSSQREPRDYSKYYKTIEDLKGQILTLTTDNANVLLQIDNARLAADDFRLKYENEVTLRQSVEADINGLRRVLDELTLSKSDLEMQIESLNEELAYLKKNHEEEMRDLQNVSTGDVNVEMNAAPGVDLTQLLNNMRNQYEQLAEKNRKDAEEWFNQKSKELTTEIDSNIEQMSSHKSEITELRRTVQGLEIELQSQLALKQSLEASLAETEGRYCVQLSQIQSQISALEEQLQQIRAETECQNAEYQQLLDIKTRLENEIQTYRSLLEGEGSSSGGGGGRRGGSGGGSYGGSSGGGSYGGSSGGGGSYGGSSGGGGSYGGGSSGGGSHGGSSGGGYGGGSSSGGAGGHGGSSGGGYGGGSSSGGQGGSGGFKSSGGGDQSSKGPRY
B1: the binding result was “binds”.

For the origin of these results see paper doi:10.1101/2020.04.30.070086 (bioRxiv, 2020).
